T1: mICAM2 (mouse, UniProt P35330 23-222, limits assumed)
T1 construct: Non-target panel protein
T1 sequence (looked up): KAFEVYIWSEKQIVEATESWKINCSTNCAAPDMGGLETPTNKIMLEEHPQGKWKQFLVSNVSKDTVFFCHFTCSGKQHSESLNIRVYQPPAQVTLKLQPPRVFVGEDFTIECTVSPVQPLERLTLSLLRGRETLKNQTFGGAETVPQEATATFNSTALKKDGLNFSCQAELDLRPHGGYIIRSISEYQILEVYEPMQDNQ

T2: hFceR1 (human, UniProt P12319 26-205)
T2 construct: Non-target panel protein
T2 sequence (alpha): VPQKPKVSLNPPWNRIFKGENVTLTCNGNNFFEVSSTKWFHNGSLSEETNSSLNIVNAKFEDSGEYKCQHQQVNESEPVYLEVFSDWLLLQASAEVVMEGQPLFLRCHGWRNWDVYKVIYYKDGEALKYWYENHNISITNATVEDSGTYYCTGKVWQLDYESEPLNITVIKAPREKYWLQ

T3: hCXCL13 (human, UniProt O43927 23-109)
T3 construct: Non-target panel protein
T3 sequence (looked up): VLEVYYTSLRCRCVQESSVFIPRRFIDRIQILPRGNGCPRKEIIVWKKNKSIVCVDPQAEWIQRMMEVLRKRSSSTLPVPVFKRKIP

T4: hLAMP-1 (human, UniProt P11279 29-382, limits assumed)
T4 construct: Non-target panel protein
T4 sequence (looked up): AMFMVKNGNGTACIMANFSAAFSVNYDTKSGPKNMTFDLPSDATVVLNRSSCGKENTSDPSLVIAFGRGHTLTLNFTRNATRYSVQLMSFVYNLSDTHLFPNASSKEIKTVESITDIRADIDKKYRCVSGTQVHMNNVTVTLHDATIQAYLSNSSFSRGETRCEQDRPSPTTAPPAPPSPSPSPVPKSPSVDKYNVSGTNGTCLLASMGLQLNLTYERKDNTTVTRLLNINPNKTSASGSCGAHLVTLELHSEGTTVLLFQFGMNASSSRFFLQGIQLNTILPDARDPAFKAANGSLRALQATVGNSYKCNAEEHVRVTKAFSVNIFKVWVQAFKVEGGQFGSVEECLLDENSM

T5: mTNFa (mouse, UniProt P06804 80-235)
T5 construct: Non-target panel protein
T5 sequence (looked up): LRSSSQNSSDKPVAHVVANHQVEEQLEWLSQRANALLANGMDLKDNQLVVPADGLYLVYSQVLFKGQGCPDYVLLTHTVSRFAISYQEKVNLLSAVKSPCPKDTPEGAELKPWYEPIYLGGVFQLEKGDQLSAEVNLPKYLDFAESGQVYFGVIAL

T6: Human A33 ectodomain protein (human, UniProt Q99795 22-235)
T6 construct: extracellular domain
T6 sequence (looked up): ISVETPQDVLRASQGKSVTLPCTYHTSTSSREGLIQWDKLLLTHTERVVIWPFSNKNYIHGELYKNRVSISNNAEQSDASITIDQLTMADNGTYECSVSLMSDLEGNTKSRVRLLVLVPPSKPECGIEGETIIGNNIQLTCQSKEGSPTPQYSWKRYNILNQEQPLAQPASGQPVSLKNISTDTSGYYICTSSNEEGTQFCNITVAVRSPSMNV


Key:
hRAGE = biological target: T7, hRAGE (human, UniProt Q15109 24-344, limits assumed); test: Biacore specificity assay: IgG immobilised (about 300 RU), antigen h-RAGE-fc injected at 500 nM
T7 construct: also called human RAGE
Experimental: (§1) Biacore specificity analyses were performed using the T-200 biosensor, series S CM5 chips, an amine-coupling kit, 10 mM sodium acetate immobilization buffer at pH 5.0, 10× HBS-P running buffer and NaOH for regeneration (GE Healthcare). A predefined ligand (IgG) immobilization program was set up to immobilize approximately 300 Response Units (RU) on the flow cell for each IgG to be tested. For Anti-RAGE and anti-A33, a panel of fully-purified recombinant target and non-target antigens were diluted in HBS-P running buffer to a final concentration of 500 nM. Four groups of antigens were examined, including: cell membrane proteins (mTRKB, hTRKB, mEGFR, hEGFR, hFceR1, hIL-21R, mICAM1, mICAM2, hICAM1, hCD33, hLAMP-1, hLOX-1, and), soluble signaling molecules (mTNFa, hVEGF, hCXCL13) and albumins (BSA, HSA and MSA). These proteins were injected at 50 μl/min for 3 min, followed by a 5 sec pulse of 20 mM NaOH for regeneration of the chip surface. For pTau, a series of pTau-derived phosphorylated and non-phosphorylated peptides were flowed, as in Shih et al.³. All sensorgrams were analyzed using the Biacore T-200 evaluation software.

mRAGE = biological target: T8, mRAGE (mouse, UniProt Q62151 24-342, limits assumed); test: Biacore specificity assay: IgG immobilised (about 300 RU), antigen m-RAGE-fc injected at 500 nM
T8 construct: also called mouse RAGE
Experimental: as §1

mICAM2 = biological target: T1, mICAM2; test: Biacore specificity assay: IgG immobilised (about 300 RU), antigen injected at 500 nM
Experimental: as §1

hFceR1 = biological target: T2, hFceR1; test: as above
Experimental: as §1

mTRKB = biological target: T9, mTRKB (mouse, UniProt P15209 32-429, limits assumed); test: as above
T9 construct: Non-target panel protein
Experimental: as §1

hLOX-1 = hLOX-1 (human, UniProt P78380 61-273); test: as above
Experimental: as §1

hTRKB = biological target: T10, hTRKB (human, UniProt Q16620 32-430, limits assumed); test: as above
T10 construct: Non-target panel protein
Experimental: as §1

hCD33 = biological target: T11, hCD33 (human, UniProt P20138 18-259, limits assumed); test: as above
T11 construct: Non-target panel protein
Experimental: as §1

hCXCL13 = biological target: T3, hCXCL13; test: as above
Experimental: as §1

hIL-21R = biological target: T12, hIL-21R (human, UniProt Q9HBE5 20-232, limits assumed); test: as above
T12 construct: Non-target panel protein
Experimental: as §1

hLAMP-1 = biological target: T4, hLAMP-1; test: as above
Experimental: as §1

hEGFR = biological target: T13, hEGFR (human, UniProt P00533 25-645, limits assumed); test: as above
T13 construct: Non-target panel protein
Experimental: as §1

mICAM1 = biological target: T14, mICAM1 (mouse, UniProt P13597 28-485, limits assumed); test: as above
T14 construct: Non-target panel protein
Experimental: as §1

mTNFa = biological target: T5, mTNFa; test: as above
Experimental: as §1

hICAM1 = biological target: T15, hICAM1 (human, UniProt P05362 28-480, limits assumed); test: as above
T15 construct: Non-target panel protein
Experimental: as §1

mEGFR = biological target: T16, mEGFR (mouse, UniProt Q01279 25-647, limits assumed); test: as above
T16 construct: Non-target panel protein
Experimental: as §1

hVEGF = biological target: T17, hVEGF (human, UniProt P15692-4 27-191, limits assumed); test: as above
T17 construct: Non-target panel protein
Experimental: as §1

[1] = biological target: T6, Human A33 ectodomain protein; test: HTRF epitope competition, IgG titrated; competitor parental IgG (Par-A33)
[2] = biological target: T6, Human A33 ectodomain protein; test: Biacore T-200 SPR, IgG immobilised (~100 RU), purified target protein injected
Experimental: Biacore analysis was performed using the T-200 biosensor, series S CM5 chips, an amine-coupling kit, 10 mM sodium acetate immobilization buffer at pH 5.0, 10×HBS-P running buffer and NaOH for regeneration (GE Healthcare). Kinetic assay conditions were established to minimize the influence of mass transfer, avidity and rebinding events. A predefined ligand immobilization program was set up to immobilize approximately 100 Response Units (RU) of IgG on the chip. Purified target proteins were diluted in HBS-P running buffer to a range of final concentrations and injected at 50 μl/min for 3 mins. Dissociation was allowed to proceed for 10 min followed by a 5 sec pulse of 20 mM NaOH for regeneration of the chip surface. All sensorgrams were analyzed using the Biacore T-200 evaluation software.

T9 sequence (P15209 32-429 limits assumed): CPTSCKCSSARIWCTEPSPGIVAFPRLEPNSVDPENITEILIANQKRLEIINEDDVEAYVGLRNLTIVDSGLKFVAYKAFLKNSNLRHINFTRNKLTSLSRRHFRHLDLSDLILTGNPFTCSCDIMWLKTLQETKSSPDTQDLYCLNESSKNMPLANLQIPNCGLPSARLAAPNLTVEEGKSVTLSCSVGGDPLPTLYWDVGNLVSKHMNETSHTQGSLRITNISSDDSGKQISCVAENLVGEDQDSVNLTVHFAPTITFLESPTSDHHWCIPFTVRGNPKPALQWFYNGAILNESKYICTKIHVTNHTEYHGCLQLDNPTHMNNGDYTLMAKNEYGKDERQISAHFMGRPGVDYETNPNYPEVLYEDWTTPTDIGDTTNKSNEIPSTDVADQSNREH
T11 sequence (P20138 18-259 limits assumed): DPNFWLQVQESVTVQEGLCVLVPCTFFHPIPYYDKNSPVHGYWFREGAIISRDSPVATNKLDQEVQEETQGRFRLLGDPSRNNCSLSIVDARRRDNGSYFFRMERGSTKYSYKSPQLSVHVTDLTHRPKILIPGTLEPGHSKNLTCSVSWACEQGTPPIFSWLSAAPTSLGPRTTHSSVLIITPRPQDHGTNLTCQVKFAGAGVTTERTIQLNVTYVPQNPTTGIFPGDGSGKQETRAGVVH
T14 sequence (P13597 28-485 limits assumed): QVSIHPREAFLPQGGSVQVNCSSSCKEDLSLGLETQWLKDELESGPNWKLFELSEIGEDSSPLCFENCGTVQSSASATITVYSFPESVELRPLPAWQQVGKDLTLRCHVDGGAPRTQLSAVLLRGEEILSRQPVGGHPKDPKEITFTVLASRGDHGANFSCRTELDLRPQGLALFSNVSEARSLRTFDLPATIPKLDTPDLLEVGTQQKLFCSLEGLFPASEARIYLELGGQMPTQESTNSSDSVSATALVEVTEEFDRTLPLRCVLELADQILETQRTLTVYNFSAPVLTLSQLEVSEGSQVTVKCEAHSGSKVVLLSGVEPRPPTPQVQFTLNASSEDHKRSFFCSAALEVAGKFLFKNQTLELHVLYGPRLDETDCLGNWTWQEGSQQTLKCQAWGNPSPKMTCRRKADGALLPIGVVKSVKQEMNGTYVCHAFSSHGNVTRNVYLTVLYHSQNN
T10 sequence (Q16620 32-430 limits assumed): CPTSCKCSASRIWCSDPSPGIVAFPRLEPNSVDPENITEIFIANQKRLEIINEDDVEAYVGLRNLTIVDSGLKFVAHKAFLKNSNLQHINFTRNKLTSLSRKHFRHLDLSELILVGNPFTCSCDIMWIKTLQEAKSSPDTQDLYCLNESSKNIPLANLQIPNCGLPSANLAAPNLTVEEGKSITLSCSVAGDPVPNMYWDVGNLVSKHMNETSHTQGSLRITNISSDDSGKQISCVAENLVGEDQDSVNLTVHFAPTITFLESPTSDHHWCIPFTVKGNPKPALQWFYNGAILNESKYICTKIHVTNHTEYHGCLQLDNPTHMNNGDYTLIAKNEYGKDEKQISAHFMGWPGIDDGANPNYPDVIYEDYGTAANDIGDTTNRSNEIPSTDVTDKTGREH
T15 sequence (P05362 28-480 limits assumed): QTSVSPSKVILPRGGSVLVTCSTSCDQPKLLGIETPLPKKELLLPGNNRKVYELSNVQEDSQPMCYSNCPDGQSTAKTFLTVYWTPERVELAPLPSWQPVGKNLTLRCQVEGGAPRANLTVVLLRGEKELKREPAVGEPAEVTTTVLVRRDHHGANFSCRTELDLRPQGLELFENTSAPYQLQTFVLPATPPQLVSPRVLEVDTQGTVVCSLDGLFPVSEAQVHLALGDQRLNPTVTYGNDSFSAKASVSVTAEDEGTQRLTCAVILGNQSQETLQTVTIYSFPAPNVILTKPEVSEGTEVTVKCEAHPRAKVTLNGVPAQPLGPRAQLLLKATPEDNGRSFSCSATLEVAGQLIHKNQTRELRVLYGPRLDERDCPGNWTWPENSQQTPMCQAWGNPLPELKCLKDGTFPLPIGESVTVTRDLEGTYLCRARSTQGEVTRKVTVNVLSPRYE
T12 sequence (Q9HBE5 20-232 limits assumed): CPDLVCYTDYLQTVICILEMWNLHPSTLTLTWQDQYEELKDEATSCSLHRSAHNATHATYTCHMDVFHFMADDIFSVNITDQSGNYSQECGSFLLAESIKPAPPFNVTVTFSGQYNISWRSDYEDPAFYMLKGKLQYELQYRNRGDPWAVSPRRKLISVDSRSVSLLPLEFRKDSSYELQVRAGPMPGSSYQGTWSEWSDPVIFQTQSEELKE
T17 sequence (P15692 other isoform, or with tags, fused parts or gaps limits assumed): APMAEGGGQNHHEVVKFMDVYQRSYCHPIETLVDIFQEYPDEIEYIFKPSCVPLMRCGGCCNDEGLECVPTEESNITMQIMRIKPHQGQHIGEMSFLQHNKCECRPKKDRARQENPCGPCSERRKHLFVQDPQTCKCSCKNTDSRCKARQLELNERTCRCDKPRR
T8 sequence (Q62151 24-342 limits assumed): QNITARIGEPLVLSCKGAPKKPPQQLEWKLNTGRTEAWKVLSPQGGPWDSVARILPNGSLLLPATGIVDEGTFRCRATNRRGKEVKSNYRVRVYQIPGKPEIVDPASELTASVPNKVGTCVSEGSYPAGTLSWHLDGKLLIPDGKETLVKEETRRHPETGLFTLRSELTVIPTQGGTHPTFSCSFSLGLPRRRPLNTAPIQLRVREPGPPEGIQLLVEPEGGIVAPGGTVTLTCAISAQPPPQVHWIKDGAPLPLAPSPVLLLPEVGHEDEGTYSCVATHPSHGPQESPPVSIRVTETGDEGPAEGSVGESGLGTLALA
T7 sequence (Q15109 24-344 limits assumed): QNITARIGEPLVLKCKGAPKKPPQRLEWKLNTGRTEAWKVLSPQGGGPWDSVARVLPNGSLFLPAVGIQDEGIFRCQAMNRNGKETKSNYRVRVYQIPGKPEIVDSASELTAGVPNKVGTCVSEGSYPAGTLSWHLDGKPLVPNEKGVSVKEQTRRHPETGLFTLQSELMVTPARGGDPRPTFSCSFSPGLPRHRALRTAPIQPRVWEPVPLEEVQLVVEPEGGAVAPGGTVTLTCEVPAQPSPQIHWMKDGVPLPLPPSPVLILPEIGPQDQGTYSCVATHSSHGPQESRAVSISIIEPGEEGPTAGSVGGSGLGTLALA

| binding result (hRAGE) | binding result (mRAGE) | binding result (mICAM2) | binding result (hFceR1) | binding result (mTRKB) | binding result (hLOX-1) | binding result (hTRKB) | binding result (hCD33) | binding result (hCXCL13) | binding result (hIL-21R) | binding result (hLAMP-1) | binding result (hEGFR) | binding result (mICAM1) | binding result (mTNFa) | binding result (hICAM1) | binding result (mEGFR) | binding result (hVEGF) | IC50 [1] | Kd [2] | Binder |
| --- | --- | --- | --- | --- | --- | --- | --- | --- | --- | --- | --- | --- | --- | --- | --- | --- | --- | --- | --- |
| binds | binds | no binding (tested: 500 nM) | no binding (tested: 500 nM) | no binding (tested: 500 nM) | no binding (tested: 500 nM) | no binding (tested: 500 nM) | no binding (tested: 500 nM) | no binding (tested: 500 nM) | no binding (tested: 500 nM) | no binding (tested: 500 nM) | no binding (tested: 500 nM) | no binding (tested: 500 nM) | no binding (tested: 500 nM) | no binding (tested: 500 nM) | no binding (tested: 500 nM) | no binding (tested: 500 nM) | – | – | Par-RAGE IgG (rat anti-RAGE XT-M4 parental v-domains on the human IgG1 backbone) (antibody, V domains shown, Human IgG1 backbone; also called XTM4 RAGE) VH: EVQLVESGGGLVQPGRSLKLSCVVSGFTFNNYWMTWIRQTPGKGLEWVASIDNSGDNTYYPDSVKDRFTISRDNAKSTLYLQMNSLRSEDTATYYCTRGGDITTGFDYWGQGVMVTVSS VL: DIQMTQSPSSMSVSLGDTITITCRASQDVGIYVNWFQQKPGKSPRRMIYRATNLADGVPSRFSGSRSGSIYSLTISSLESEDVADYHCLEFDEHPLTFGSGTKVEIK |
| – | – | no binding (tested: 500 nM) | no binding (tested: 500 nM) | no binding (tested: 500 nM) | no binding (tested: 500 nM) | no binding (tested: 500 nM) | no binding (tested: 500 nM) | no binding (tested: 500 nM) | no binding (tested: 500 nM) | no binding (tested: 500 nM) | no binding (tested: 500 nM) | no binding (tested: 500 nM) | no binding (tested: 500 nM) | no binding (tested: 500 nM) | no binding (tested: 500 nM) | no binding (tested: 500 nM) | 2.9 nM | 2.1 nM | Chim-A33 IgG (rabbit anti-A33 parental v-domains on the human IgG1 backbone) (antibody, V domains shown, also called Par-A33; A33 Rabbit) VH: QEQLMESGGGLVTLGGSLKLSCKASGIDFSHYGISWVRQAPGKGLEWIAYIYPNYGSVDYASWVNGRFTISLDNAQNTVFLQMISLTAADTATYFCARDRGYYSGSRGTRLDLWGQGTLVTISS VL: ELVMTQTPPSLSASVGETVRIRCLASEFLFNGVSWYQQKPGKPPKFLISGASNLESGVPPRFSGSGSGTDYTLTIGGVQAEDVATYYCLGGYSGSSGLTFGAGTNVEIK |
